According to paper PMC7933101 (Proteins, 2020):
Values joined by “and” are separate entries in the source; they are usually repeats but may differ in a detail not shown here. Identical values can stand only once.

B1: Granulin-5 (GRN-5) (natural protein, UniProt P28799 364-417, looked up)
chain: VPCDNVSSCPSSDTCCQLTSGEWGCCPIPEAVCCSDHQHCCPQGYTCVAEGQCQ
B2: Granulin-3 (GRN-3) (natural protein, UniProt P28799 206-261, looked up)
chain: VMCPDARSRCPDGSTCCELPSGKWGCCPMPNATCCSDHLHCCPQDTVCDLIQSKCL

What was measured:
[1] = target: the molecule itself; assay: non-reducing PAGE
[2] = target: the molecule itself; assay: PAGE under denaturing, non-reducing conditions

Row | Protein | binding result [1] | stoichiometry N [2] | stoichiometry N [1]
1 | B1 | binds | – | –
2 | B2 | – | ≤ 4 | 2 and 3
